The target of the test is gastrin-releasing peptide receptor (GRPR) with a C-terminal NLuc tag (human) (UniProt P30550). Kind of test: FRET or BRET.
UniProt P30550, sequence (P30550 whole entry): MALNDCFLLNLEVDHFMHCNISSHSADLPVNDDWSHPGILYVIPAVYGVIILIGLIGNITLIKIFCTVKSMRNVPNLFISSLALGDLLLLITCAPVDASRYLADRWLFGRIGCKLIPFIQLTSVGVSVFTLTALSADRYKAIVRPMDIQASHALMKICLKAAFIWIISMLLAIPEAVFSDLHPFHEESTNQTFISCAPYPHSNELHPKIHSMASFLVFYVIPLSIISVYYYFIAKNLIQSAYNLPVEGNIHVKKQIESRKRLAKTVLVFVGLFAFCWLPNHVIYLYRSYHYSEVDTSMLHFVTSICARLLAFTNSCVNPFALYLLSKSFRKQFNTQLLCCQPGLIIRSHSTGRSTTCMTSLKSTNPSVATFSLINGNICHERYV

venus-mGq (engineered mini Gαq probe) came in with an efficacy of miniGq recruitment with AG-2-BBN-1 (% of AMBA) of 57%.

The record behind these values is publication PMC8640787.
